Target: human cytosolic aminopeptidase P, R535A mutant (human) (UniProt Q9NQW7)
Sequence (Q9NQW7 whole entry R535A): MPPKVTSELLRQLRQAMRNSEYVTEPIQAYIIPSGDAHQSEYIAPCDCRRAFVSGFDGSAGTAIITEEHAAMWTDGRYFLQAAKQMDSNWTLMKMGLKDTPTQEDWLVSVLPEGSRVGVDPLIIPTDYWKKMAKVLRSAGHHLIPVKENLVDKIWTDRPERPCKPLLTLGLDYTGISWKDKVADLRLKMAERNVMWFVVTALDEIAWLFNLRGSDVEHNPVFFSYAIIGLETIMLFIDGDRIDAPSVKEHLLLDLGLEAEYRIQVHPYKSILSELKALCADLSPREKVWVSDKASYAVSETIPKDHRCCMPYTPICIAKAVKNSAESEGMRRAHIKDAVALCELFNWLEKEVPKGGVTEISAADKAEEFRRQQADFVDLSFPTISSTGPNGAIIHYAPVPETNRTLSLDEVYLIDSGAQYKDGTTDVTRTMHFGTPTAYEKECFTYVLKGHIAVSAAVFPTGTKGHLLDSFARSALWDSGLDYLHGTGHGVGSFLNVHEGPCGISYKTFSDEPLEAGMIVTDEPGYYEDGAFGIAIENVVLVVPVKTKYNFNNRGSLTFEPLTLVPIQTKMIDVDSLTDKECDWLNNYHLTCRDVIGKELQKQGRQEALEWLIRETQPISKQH

Sequence of bradykinin (P01042 whole entry, looked up): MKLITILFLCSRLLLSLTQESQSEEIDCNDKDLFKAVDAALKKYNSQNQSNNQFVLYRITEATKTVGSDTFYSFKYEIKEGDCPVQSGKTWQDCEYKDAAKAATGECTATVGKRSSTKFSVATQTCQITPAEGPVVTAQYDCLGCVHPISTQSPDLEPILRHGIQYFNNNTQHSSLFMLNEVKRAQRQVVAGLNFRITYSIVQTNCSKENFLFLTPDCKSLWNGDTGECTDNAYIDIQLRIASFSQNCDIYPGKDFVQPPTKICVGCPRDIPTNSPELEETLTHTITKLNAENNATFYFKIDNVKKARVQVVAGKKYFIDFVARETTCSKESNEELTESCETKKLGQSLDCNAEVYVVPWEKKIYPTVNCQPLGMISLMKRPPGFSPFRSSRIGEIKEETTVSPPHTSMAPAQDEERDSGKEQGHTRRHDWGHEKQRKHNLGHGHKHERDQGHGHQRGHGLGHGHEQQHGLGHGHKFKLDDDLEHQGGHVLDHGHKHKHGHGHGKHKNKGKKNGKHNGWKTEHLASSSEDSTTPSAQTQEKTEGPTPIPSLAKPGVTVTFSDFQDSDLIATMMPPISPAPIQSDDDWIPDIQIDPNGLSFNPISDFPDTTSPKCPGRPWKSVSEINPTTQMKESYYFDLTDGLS

Km for bradykinin of the hydrolysis catalysed by R535A hcAMPP (HPLC of des-Arg-bradykinin, 50 mM Tris-HCl pH 7.5, 37°C), with 0, 0.1, 1 and 10 mM guanidine hydrochloride: 350, 327, 144 and 163 μM: 350 μM
Substance: bradykinin (from UniProt P01042 381-389) (peptide)

Reference: PMC5774706
